# Reference: publication PMC8131325 (The Journal of Biological Chemistry, 2021)
# B1: αSynP130-140 (peptide)
# peptide: EEGYQDYEPEA
# notes: also called α-synuclein decoy peptide; C-terminal peptide of αSyn; source: synthetic peptide (SCRUM Inc or BEX Co Ltd)
# B2: αSynP130-140 Y133F (peptide)
# peptide: EEGFQDYEPEA
# notes: source: synthetic peptide (SCRUM Inc or BEX Co Ltd)
# B3: αSynP130-140 Y136F (peptide)
# peptide: EEGYQDFEPEA
# notes: as for B2
# B4: αSynP130-140 Y133F/Y136W (peptide)
# peptide: EEGFQDWEPEA
# notes: as for B2
# B5: αSynP130-140 Y136W (peptide)
# peptide: EEGYQDWEPEA
# notes: as for B2
# B6: αSynP130-140 Y133W/Y136W (peptide)
# peptide: EEGWQDWEPEA
# notes: as for B2
# B7: αSynP130-140 Y133F/Y136F (peptide)
# peptide: EEGFQDFEPEA
# notes: as for B2
# Target: T1, fatty acid binding protein 3 (UniProt P05413 1-133)
# T1 construct: synthetic gene (Invitrogen GeneArt) in pET28a between NcoI and XhoI; Untagged FABP3; also called FABP3; H-FABP; source: E. coli BLR(DE3), purified (Resource-Q anion exchange column), delipidized, lyophilized
# T1 sequence (P05413 whole entry): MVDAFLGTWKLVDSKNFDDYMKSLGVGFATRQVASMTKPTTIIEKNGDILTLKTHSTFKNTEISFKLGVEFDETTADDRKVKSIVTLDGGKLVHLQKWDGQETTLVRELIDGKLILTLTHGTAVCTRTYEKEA
# Assay: other fluorescence titration; ANS fluorescence (5 μM ANS, emission at 460 nm) of 2 μM FABP3 with increasing concentrations of αSyn or αSynP130-140; 50 mM Tris-HCl pH 7.4
# Conditions: both partners purified
row,stoichiometry N,Binder
1,~1,B1

# Target: T2, FABP3 with N-terminal His6 tag (UniProt P05413 1-133)
# T2 construct: synthetic gene (Invitrogen GeneArt) in pET28a between NdeI and XhoI; Apo (delipidized) form; held on the Ni-NTA quartz sensor by the His6 tag; also called His6-FABP3; not shown: His6, N-terminal, kept
# T2 sequence (P05413 whole entry): as above
# Assay: quartz crystal microbalance (QCM); His6-FABP3 (or FABP3 F16S) immobilised on the gold-plated quartz sensor through Ni-NTA groups; αSyn, its variants or peptides added at varying concentrations; room temperature; 50 mM Tris-HCl pH 7.4; kobs = koff + kon[αSyn], Kd from kon and koff (AQUA 2.0)
# Conditions: both partners purified
Kd,koff,kon,Binder
6.1 nM,0.0012 s⁻¹,200000 M⁻¹ s⁻¹,B1
2 nM,0.0015 s⁻¹,750000 M⁻¹ s⁻¹,B2
7.7 nM,0.0037 s⁻¹,480000 M⁻¹ s⁻¹,B3
6.1 nM,0.0019 s⁻¹,320000 M⁻¹ s⁻¹,B4
6.3 nM,0.0024 s⁻¹,380000 M⁻¹ s⁻¹,B5
6.2 nM,0.0015 s⁻¹,240000 M⁻¹ s⁻¹,B6
2.1 nM,0.0011 s⁻¹,540000 M⁻¹ s⁻¹,B7
